From the supplement of paper PMC9732359
± gives the uncertainty stated by the source.

Assay: protein stability index of a GFP-peptide fusion (yeast GPS) (PSI 1-4); higher = more stable; sorted into four equal gates, so the index is relative within each strain
Conditions: doa10∆
Summary of the method: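 Tiled 17-residue yeast protein peptides were fused downstream of GFP in a plasmid that also expresses Cherry, and the pooled library was carried in yeast. Mid-log cultures in leucine-free medium were sorted into four equal gates by GFP/Cherry fluorescence ratio, and plasmids from each gate were PCR-amplified and Illumina-sequenced, with reads assigned to strains by barcodes. The protein stability index for each peptide was each gate's read frequency times its gate number, summed.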

| Sequence | protein stability index |
| --- | --- |
| ARVLSNYLRQQCNYSSL [PRE5] | 2.71 ± 0.17 |
| ASDLVLIVIDVVEGVTF [SNU114] | 1.33 ± 0.041 |
| ASFQIVEEDHTLGNALR [RPC19] | 2.74 ± 0.21 |
| ASGCNVTPIIDGIVVKN [ARP7] | 1.9 ± 0.064 |
| ASGKEVEKVATAVLSTT [RPN2] | 2.76 ± 0.14 |
| ASISLAIGYPTLPSVGH [RPP0] | 2.66 ± 0.075 |
| ASKYNCDKSVCRKCYAR [RPL40A] | 2.81 ± 0.056 |
| ASQPEPTTNEPAKPALS [YJL041W/NSP1] | 2.81 ± 0.097 |
| ATAALEIILKLCRNPLT [YJL039C/NUP192] | 2.03 ± 0.065 |
| ATANATANATAELNLPT [SNF11] | 3.096 ± 0.028 |
| ATGFGAHMANPLLRKVV [PRE4] | 3.29 ± 0.14 |
| ATLSKLKKKYQIILDRF [SIR3] | 2.32 ± 0.065 |
| ATMENIQKGKFTLLDFK [SRP54] | 2.98 ± 0.068 |
| ATSTKVSVEGVNVEKFN [RPL6A] | 2.88 ± 0.11 |
| ATVEECVKLTVRSLLEV [PRE6] | 1.53 ± 0.052 |
| ATVLSRKILKKTFKNPK [RPN5] | 2.4 ± 0.044 |
| AVAEAYNNRSLLDFNTA [RPN6] | 3.16 ± 0.081 |
| AVGAHSDLLKVLKSKKL [RPL4A] | 3.13 ± 0.14 |
| AVHNGDRKHVAALRTVK [RPL9B] | 2.09 ± 0.064 |
| AVHSIIALSRRFLLNGR [YDL116W/NUP84] | 2.11 ± 0.086 |
| AVKYGLNHVVALIENKK [RPL8A] | 2.26 ± 0.19 |
| AVLNVSPVYDVDPRIIN [NUT1] | 2.2 ± 0.078 |
| AVNLLNCPHSDSTQLLE [SSN2] | 2.67 ± 0.15 |
| CCYFIEWKSNHKKKRSN [SRB8] | 1.81 ± 0.048 |
| CDLDFPLRENTNVLDVK [YDL116W/NUP84] | 2.72 ± 0.065 |
| CDQTKSVPLMINAKNIA [RRP43] | 1.74 ± 0.061 |

| Sequence | protein stability index |
| --- | --- |
| CFVHRYKDVSDLIRSES [IRR1] | 2.67 ± 0.082 |
| CIVDFTNPKLKSEFDDL [YMR129W/POM152] | 1.81 ± 0.067 |
| CKKNTKKCLKLAYENKI [POP4] | 2.77 ± 0.068 |
| CKLTLDINVELFPVAAQ [RPB8] | 2.57 ± 0.063 |
| CKQVHDKLTSIQDTLRT [MED7] | 2.68 ± 0.074 |
| CNAQPITRSVMRFNIEI [BRR2] | 2.71 ± 0.082 |
| CNSLHIPQDFENEVSDI [ESC2] | 2.95 ± 0.06 |
| CPLSQQFCGIKERNSLK [BRR2] | 2.88 ± 0.16 |
| CPNSTGAELRSVCTEAG [RPT1] | 1.54 ± 0.053 |
| CQEEVSTIEKDMKEYDS [SMC2] | 3.39 ± 0.12 |
| CQYMVACVPLLPPPEDV [RPN1] | 2.03 ± 0.046 |
| CRGELKADIGKPGRMPF [CDC53] | 2.21 ± 0.071 |
| CRKLSFSDKVNALWILV [ITC1] | 1.72 ± 0.075 |
| CRYSCLALERMVPKRST [YCS4] | 2.71 ± 0.27 |
| CYQFAEYLFKPQLISDK [ARP7] | 2.38 ± 0.06 |
| DAEVAQFLEQGLSIHPT [SRP68] | 2.79 ± 0.057 |
| DAGSNQYYVTQHDKMVD [SWI1] | 3.04 ± 0.058 |
| DAHKAEQEDIIEKTESV [SWI3] | 3.19 ± 0.086 |
| DAISQVINIAKAHPNFP [FAS1] | 1.41 ± 0.076 |
| DAIYRELTKNPNSNVEL [SMC1] | 3.31 ± 0.3 |
| DAKKCIAACTGVPDDKW [FAS1] | 2.63 ± 0.092 |
| DAKSSAYSSRFQTPFRR [RPL5] | 2.82 ± 0.067 |
| DAMIAQRSKKIQPTAKV [DIS3] | 1.83 ± 0.082 |
| DARSSRNFSLAIIDKNT [PRE4] | 3.02 ± 0.075 |
| DATTWRYSMSEQFPFYL [IRR1] | 3.09 ± 0.098 |
| DATYDSALELVGQLNKV [RPN6] | 3.11 ± 0.16 |

| Sequence | protein stability index |
| --- | --- |
| DCRMGNFYIQYDPKDGL [AAR2] | 2.77 ± 0.054 |
| DDAMEINGEDPANNHQL [SMX2] | 3.38 ± 0.076 |
| DDDIEKQEQEEKIKSKK [YCG1] | 3.08 ± 0.067 |
| DDDVTPSTKVASSAVMN [YLR335W/NUP2] | 3.5 ± 0.14 |
| DDEGSFAQENSELAVAT [SRB6] | 3.08 ± 0.065 |
| DDESPRFVMPNQLLAAL [RRP6] | 1.98 ± 0.048 |
| DDFEVNVASLVRVQFQF [GRR1] | 2.57 ± 0.059 |
| DDFQNFFDPKPFDQNLD [SWI1] | 2.53 ± 0.061 |
| DDKLAYIRVNHADKDTF [POP8] | 2.9 ± 0.059 |
| DDLKKDHIAIDWEDEEK [DSN1] | 2.73 ± 0.083 |
| DDLQSSVIPEVDREAML [YCG1] | 2.63 ± 0.085 |
| DDPVPTPPAIEHKPVSP [SSN2] | 2.63 ± 0.14 |
| DDVLQTIITDCAFLLTK [YJL039C/NUP192] | 1.76 ± 0.057 |
| DDYVLRIFAIAFTRKQA [RPS1A] | 1.77 ± 0.019 |
| DEDLHEFQIEDAIWSLV [SRB8] | 3.4 ± 0.13 |
| DEEENGSSDEDLKSLNV [SSN2] | 3.24 ± 0.11 |
| DEFPELKEPVEDIIKRT [NUT2] | 3.5 ± 0.066 |
| DEGTALSRLGLKRYCCR [RPB10] | 3.38 ± 0.11 |
| DEHHESFELKEEDISDL [RRP6] | 3.01 ± 0.072 |
| DEIATIQSKRLRNKIAG [RPS17A] | 3.15 ± 0.11 |
| DEISPELLSKYKEQIIQ [SNU114] | 2.44 ± 0.079 |
| DEITEDMFEMSDEEENN [SSN2] | 3.16 ± 0.099 |
| DELEDDTLNETNLKMKR [RRP43] | 3.18 ± 0.093 |
| DELLSQLDLCKLYFQLF [SRP68] | 1.56 ± 0.1 |
| DELVLNFENDNENNSNG [REC8] | 2.88 ± 0.19 |
| DERIEKELNTERQIFLE [CDC53] | 2.9 ± 0.1 |

| Sequence | protein stability index |
| --- | --- |
| DETYKGVEEVEGEYELT [RPL5] | 3.21 ± 0.16 |
| DEVYVQNSKFLKVNVTL [YJL039C/NUP192] | 2.68 ± 0.064 |
| DFAQKEINGDDDEDEDD [PRE10] | 3.09 ± 0.11 |
| DFIKFDAGKLVYVTGGR [RPS4A] | 2.22 ± 0.13 |
| DFIQLKQTAAYRTPGSS [SSN2] | 2.88 ± 0.064 |
| DFNMKLAINAKTITSGL [RPB2] | 2.99 ± 0.087 |
| DFNQAKHEEIDTKNLYV [RPS10A] | 3.38 ± 0.16 |
| DFSIRKTCAKSVIQLCG [ECM29] | 1.84 ± 0.12 |
| DGENDKKEATKPAFSFG [YLR335W/NUP2] | 2.59 ± 0.048 |
| DGILRLYDALEPSDLRS [YGL100W/SEH1] | 3.02 ± 0.061 |
| DHSMILPSGVLSRGDDE [SMC3] | 3.08 ± 0.094 |
| DICLKLNLDSEQTVEYM [RPN3] | 3.37 ± 0.23 |
| DIEDALVLNKSSIDRGF [RET1] | 2.37 ± 0.095 |
| DIGVLEEYARRLAEFKR [SMC4] | 3.13 ± 0.12 |
| DIICEDSTLILEQLAQH [RPB2] | 2.24 ± 0.047 |
| DIKANGSIQKGMPHKFY [RPL21A] | 3.01 ± 0.21 |
| DINPPLVFILAVVGNNM [RRP42] | 1.84 ± 0.083 |
| DINTIKLQLSFVLQMVG [SRP72] | 1.26 ± 0.092 |
| DITFFGEALPNKFHKSI [SIR2] | 3 ± 0.11 |
| DIYKSHLDNSKSVFSSA [RPN1] | 2.69 ± 0.056 |
| DKDRDTRRKRRQGRSNR [SNF5] | 3.6 ± 0.23 |
| DKEWVFAALSDSYGQGS [SSN2] | 3.18 ± 0.11 |
| DKFFTLSAENIEERLVA [SCL1] | 3.01 ± 0.074 |
| DKFKLNENDLKTYNCLH [SMC1] | 2.7 ± 0.14 |
